Reference: paper PMC1635313

Target: T1, CRP (cAMP receptor protein, CAP) (Escherichia coli) (UniProt P0ACJ8)
T1 sequence: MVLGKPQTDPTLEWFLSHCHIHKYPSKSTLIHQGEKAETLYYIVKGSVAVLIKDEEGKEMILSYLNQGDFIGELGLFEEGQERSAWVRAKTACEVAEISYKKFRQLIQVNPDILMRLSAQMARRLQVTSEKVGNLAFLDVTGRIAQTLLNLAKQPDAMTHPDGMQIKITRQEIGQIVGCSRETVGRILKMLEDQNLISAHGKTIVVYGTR
Assay: EMSA

Sequence	binding
CCAGGTTTCCCAGCACTTTTAATCTGGCGGTTAATGCGACTCCGGCATCCGGTGAAACATCCGGTAAAGGATGCAATACGCCGTCGATACGCAAGCGGATGCGGTAGGC (double strand) [hofB coding fragment]	no binding
GCACGACAGGTTTCCCGACTGGAAAGCGGGCAGTGAGCGCAACGCAATTAATGTGAGTTAGCTCACTCATTAGGCACCCCAGGCTTTACACTTTATGCTTCCGGCTCGTATGTTGTGTGGAATTGTG (double strand) [lacZ promoter fragment]	binds
